Numbering of substitutions follows the chain as printed.
T1: human FGFR1 protein (ACRO Biosystems, Cat. No. FG1-H5223) (human, UniProt P11362-14 22-285)
T1 construct: Bought recombinant protein; construct not described
T1 sequence (looked up): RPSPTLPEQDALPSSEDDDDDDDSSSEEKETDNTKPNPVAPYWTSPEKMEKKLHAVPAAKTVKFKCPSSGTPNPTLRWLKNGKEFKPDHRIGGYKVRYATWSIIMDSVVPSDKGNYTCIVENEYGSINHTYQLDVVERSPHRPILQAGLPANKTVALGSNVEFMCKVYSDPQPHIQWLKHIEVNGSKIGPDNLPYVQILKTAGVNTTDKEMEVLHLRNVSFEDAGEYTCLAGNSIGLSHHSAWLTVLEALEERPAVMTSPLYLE

T2: human FGFR2-his protein (huFGFR2-his) (human)
T2 construct: Extracellular region of human FGFR2 (NP_001138385.1) with a 6xHis tag; also called human FGFR2 extracellular protein
T2 chain: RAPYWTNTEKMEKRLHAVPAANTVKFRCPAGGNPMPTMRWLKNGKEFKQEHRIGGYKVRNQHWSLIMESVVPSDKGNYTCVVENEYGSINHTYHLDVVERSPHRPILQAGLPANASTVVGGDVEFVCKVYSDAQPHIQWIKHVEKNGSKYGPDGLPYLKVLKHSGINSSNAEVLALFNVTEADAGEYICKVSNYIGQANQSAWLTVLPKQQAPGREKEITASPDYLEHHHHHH

B1: antibody E3A1 (murine chimeric anti-FGFR2 antibody) (antibody, human IgG1, kappa, V domains shown)
VH: QVTLKESGPGILQSSQTLSLTCSFSGFSLTTSGMGVSWIRQPSGKGLEWLAHIYWDDDKRYNPSLKSRLTISKDTSRNQVFLKITSVDTADTATYYCAGCDSSGSFDYWGQGTTLTVSS
VL: DIQMTQTTSSLSASLGDRVTITCRASQDISNYLNWYQQKPDGTVKLLIYYRSRLHSGVPSRFSGSGSGPEYSLTISNLEQEDIATYFCQQGNTLPWTFGGGTKLEIKR
B2: antibody A5H12 (murine chimeric anti-FGFR2 antibody) (antibody, human IgG1, kappa, V domains shown)
VH: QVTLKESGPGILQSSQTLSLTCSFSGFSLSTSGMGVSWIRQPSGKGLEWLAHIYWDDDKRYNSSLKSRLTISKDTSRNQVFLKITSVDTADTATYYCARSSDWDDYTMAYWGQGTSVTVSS
VL: DIVLTQSPASLAVSLGQRATISCRASESIDDFGISFMHWYQQKPGQPPKLLIYRASNLESGIPARFSGSGSRADFTLTINPVETDDVATYYCQQSNKDPPTFGAGTNLELKR
B3: mouse antibody A1B2 (antibody, V domains shown)
VH: EVQLQQSGAELVRPGASVKLSCTASGFNIKDYYMHWVKQRPEQGLEWIGRIDPEDGDTEYAPKFQGKATMTADTSSNTAYLQLSSLTSEDTAVYYCTTYYYVSTYEDYWGQGTTLTVSS
VL: QIVLTQSPAIMSASLGEEITLTCSASSSVSHMHWYQQKSGTSPKLLIYSTSNLASGVPSRFSGSGSGTFYSLTISSVEAEDAADYYCHHWSSWTFGGGTKLEIK
notes: Antibody as produced by the hybridoma
B4: mouse antibody F3F8 (antibody, V domains shown)
VH: B1 VH with T30S, D57N, A98T, G99R, C100S
VL: DIQMTQTTSSLSASLGDRVTISCRASQDISNYLNWYQQKPDGTVKFLIYYTSTLHSGVPSRFSGSGSGTDYSLTISNLEQEDIATYFCQQGNTLPWTFGGGTKLEIK
notes: as for B3
B5: mouse antibody D12D8 (antibody, V domains shown)
VH: QVQLQQSGAELARPGASVKLSCKASGYTFTNYGISWVKQRTGQGLEWIGEIYPRSGNTYYNEKFKGKATLTADKSSSTAYMELRSLTSEDSAVYFCARGDYSNSDYWGQGTTLTVSS
VL: B4 VL with S30T, N31D, Y32H, F46L, T53R, W96R
notes: as for B3
B6: mouse antibody E3A1 (antibody, V domains shown)
VH: B1 VH
VL: B4 VL with S22T, F46L, T51R, T53R, T69P, D70E
notes: as for B3
B7: mouse antibody F6B6 (antibody, V domains shown)
VH: QVQLKQSGPGLVQPSQSLSITCTVSGFSLTNYGVHWVRQSPGKGLEWLGVIWSDGSTDYDAAFISRLSISTDNSKSQVFFKMNSLQAADTAIYYCARKGDYDYDNYAMDYWGQGTSVTVSS
VL: DVVITQSPATLSVTPGDSVSLSCRASQSISNNLHWYQQKSHESPRLLIKYASQSISGIPSRFSGSGSGTDFTLSINSVETEDFGMYFCQQSNSWPLTFGAGTKLELK
notes: as for B3
B8: mouse antibody A5H12 (antibody, V domains shown)
VH: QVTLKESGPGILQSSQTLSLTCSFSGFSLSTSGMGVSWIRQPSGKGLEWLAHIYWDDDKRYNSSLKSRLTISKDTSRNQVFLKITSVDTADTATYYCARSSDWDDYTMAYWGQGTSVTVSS
VL: DIVLTQSPASLAVSLGQRATISCRASESIDDFGISFMHWYQQKPGQPPKLLIYRASNLESGIPARFSGSGSRADFTLTINPVETDDVATYYCQQSNKDPPTFGAGTNLELK
notes: as for B3
B9: mouse antibody G11B8 (antibody, V domains shown)
VH: EVQLQQSGPELVKPGASVKIPCKASGYTFTDYNMDWVKQSHGKSLEWIGDINPKNGETFYNQKFKGKATLTVDRSSNTAYMELRSLTSEDTAVYFCAKRDLNWYFDYWGQGTTLTVSS
VL: DIQMTQSSSYLSVSLGGRVTITCKASDHINNWLAWYQQKPGNAPRLLISGATSLETGVPSRFSGSGSGKDYTLSITSLQTEDVATYYCQQYWSTPWTFGGGTKLEIK
notes: as for B3
B10: mouse antibody H3F7-a (antibody, V domains shown)
VH: B9 VH with N77S
VL: B9 VL
notes: as for B3

Biological target: T1, human FGFR1 protein (ACRO Biosystems, …)
Test: ELISA, FGFR1 coated

binding result	Binder
no binding	B1
no binding	B2

Biological target: T3, human FGFR4 protein (Sino Biological, Cat. No. 10538-H08H) (human, UniProt P22455 22-369)
T3 construct: Bought recombinant protein; construct not described
Test: ELISA, FGFR4 coated

binding result	Binder
no binding	B1
no binding	B2

Biological target: T2, human FGFR2-his protein (huFGFR2-his)
Test: ELISA screen of hybridoma subclones on human FGFR2-his

binding result	Binder
binds	B3
binds	B4
binds	B5
binds	B6
binds	B7
binds	B8
binds	B9
binds	B10

Reference: patent publication EP4786494A1 (Nanjing Leads Biolabs Co., Ltd., dated 2026)
